According to article PMC6677837, “A Novel Cell-Penetrating Antibody Fragment Inhibits the DNA Repair Protein RAD51” (Scientific Reports, 2019):

B1: Fab-F2-iPTD (Fab, V domains shown)
VH: EVQLVESGGGLVQPGGSLRLSCAASGFTFSSYGMHWVRQAPGKGLEWVAVISYDGSNKYYADSVKGRFTISADTSKNTAYLQMNSLRAEDTAVYYCARTYSYASRGWYDYWGQGTLVTVSS
VL: DIQMTQSPSSLSASVGDRVTITCRASQGISNYLAWYQQKPGKAPKLLIYAASSLQSGVPSRFSGSRSGTDFTLTISSLQPEDFATYYCQQGTYLPLTFGQGTKVEIK
notes: as the heavy chain of m2; as the light chain of m2; also called cell-penetrating Fab-F2-iPTD; source: E. coli, pCW-Fab-F2-iPTD, purified
B2: Fab-F2 (Fab, V domains shown)
VH: EVQLVESGGGLVQPGGSLRLSCAASGFTFSSYGMHWVRQAPGKGLEWVAVISYDGSNKYYADSVKGRFTISADTSKNTAYLQMNSLRAEDTAVYYCARTYSYASRGWYDYWGQGTLVTVSS
VL: DIQMTQSPSSLSASVGDRVTITCRASQGISNYLAWYQQKPGKAPKLLIYAASSLQSGVPSRFSGSRSGTDFTLTISSLQPEDFATYYCQQGTYLPLTFGQGTKVEIK
notes: Human IgG1 synthetic Fab from phage Library S (randomised CDRL3 and CDRH3, canonical other CDRs); In the Western blots the Fab was labelled with IRDye 800CW; also called IRDye 800CW-labeled Fab-F2; source: also in small-scale E. coli lysate
B3: oligo(dT)36 (ssDNA)
DNA: TTTTTTTTTTTTTTTTTTTTTTTTTTTTTTTTTTTT

How the values were obtained:
[1] = molecular target: T1, Recombinant human RAD51 (residues 21-339, C-terminal Leu-Glu-His6) (human, UniProt Q06609 21-339); experiment: BLI
T1 chain: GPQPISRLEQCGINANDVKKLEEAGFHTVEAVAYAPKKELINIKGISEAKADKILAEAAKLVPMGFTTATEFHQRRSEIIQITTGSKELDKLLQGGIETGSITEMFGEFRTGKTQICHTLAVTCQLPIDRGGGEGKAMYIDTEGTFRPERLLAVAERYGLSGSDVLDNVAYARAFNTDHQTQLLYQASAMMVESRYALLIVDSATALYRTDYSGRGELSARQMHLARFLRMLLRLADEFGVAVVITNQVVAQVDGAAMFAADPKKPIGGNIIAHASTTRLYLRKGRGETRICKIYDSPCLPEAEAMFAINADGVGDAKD

[2] = molecular target: T2, Recombinant human RAD51 (residues 21-339, C-terminal Leu-Glu-His6) (Homo sapiens, UniProt Q06609); experiment: BLI; Fab (about 0.5 nm) immobilised on Protein L biosensors, range of RAD51 concentrations in solution; 25 °C, PBS pH 7.4 with 0.1% Tween 20 and 10 mg/mL BSA; global fit, 1:1 Langmuir model, reference well subtracted; conditions: both partners purified
T2 construct: RAD51, Homo sapiens, residues 21-339, inserted between the NcoI and XhoI sites of pET28a; Cloning at the NcoI site may add a start methionine; also called purified RAD51; plasmid-expressed RAD51; source: E. coli Rosetta(DE3), pET28a-RAD51, purified (ammonium sulfate, DE52 anion exchange, HiTrap Ni-chelating column); also in E. coli whole cell lysate

[3] = molecular target: T2, Recombinant human RAD51 (residues …); experiment: cell-based or functional assay
RAD51 = RAD51 (Homo sapiens, UniProt Q06609 21-339); experiment: BLI; no Fab-F2; 1:1 Langmuir global fit; BLI on streptavidin biosensors; 0.5 uM RAD51 for the inhibition assay; buffer, salt, pH and temperature not given in the material (RAD51 dialyzed into PBS); conditions: protein: recombinant; label: 5'-biotin; single strand

Binder | koff [1] | Kd [2] | koff, fold lower than for Fab-F2 [2] | kon, fold lower than for Fab-F2 [2] | inhibition of RAD51 (500 nM, pre-incubated with various concentrations of Fab-F2) binding to immobilised 5'-biotinylated oligo(dT)36 ssDNA, by BLI; IC50 [3] | koff [2] | kon [2] | Kd (RAD51)
B1 | 0.000658 s⁻¹ | 18.2 nM | ~2 fold | ~2 fold |  |  |  | 
B2 |  | 8.1 ± 0.21 nM |  |  | < 125 nM | 0.000156 s⁻¹ | 19300 M⁻¹ s⁻¹ | 
B3 |  |  |  |  |  |  |  | 27.6 ± 4.75 nM
